Patent publication US20030190311A1
pKd: −log10 of the molar value.

What was measured:
human FcRn (human) = assay: BIAcore SPR, equilibrium/Scatchard, soluble FcRn over immobilized IgG1, pH 6.0, 25 C
murine FcRn (murine) = assay: as above
Chain of murine FcRn (murine) (chain, as listed by the source limits assumed, chain 1 of 2): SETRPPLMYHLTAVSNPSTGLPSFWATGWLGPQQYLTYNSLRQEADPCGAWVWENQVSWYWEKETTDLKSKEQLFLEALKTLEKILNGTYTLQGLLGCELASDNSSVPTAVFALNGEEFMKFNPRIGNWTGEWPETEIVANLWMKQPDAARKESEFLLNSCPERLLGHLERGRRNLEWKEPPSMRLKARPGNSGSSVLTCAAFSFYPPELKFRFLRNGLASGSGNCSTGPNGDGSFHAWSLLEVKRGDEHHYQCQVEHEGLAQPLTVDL
Chain of murine FcRn (murine) (P01887 21-119 limits assumed, chain 2 of 2): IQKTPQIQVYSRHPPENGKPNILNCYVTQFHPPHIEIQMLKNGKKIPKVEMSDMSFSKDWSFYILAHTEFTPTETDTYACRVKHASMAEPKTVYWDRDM

Chain of human FcRn (human) (chain, as listed by the source limits assumed, chain 1 of 2): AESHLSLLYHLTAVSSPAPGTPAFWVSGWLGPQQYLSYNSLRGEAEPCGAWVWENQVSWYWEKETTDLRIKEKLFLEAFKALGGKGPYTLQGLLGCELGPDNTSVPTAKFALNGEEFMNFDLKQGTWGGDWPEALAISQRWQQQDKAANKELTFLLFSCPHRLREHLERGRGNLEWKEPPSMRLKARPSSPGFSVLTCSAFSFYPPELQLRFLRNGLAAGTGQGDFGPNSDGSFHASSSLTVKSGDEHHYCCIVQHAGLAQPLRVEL
Chain of human FcRn (human) (P61769 21-119 limits assumed, chain 2 of 2): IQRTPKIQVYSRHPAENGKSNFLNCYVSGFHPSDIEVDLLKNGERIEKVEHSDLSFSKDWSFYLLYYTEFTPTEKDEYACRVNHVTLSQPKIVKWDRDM

“wild type human IgG1 MEDI-493 (SYNAGIS) (antibody)” was tested. Which pKd (human FcRn (human)) did it give?
The pKd was 5.60.

What about the pKd (murine FcRn (murine)) of the same substance?
The pKd was 6.57.
